Columns and labels:
[1] = Experiment 4-1: screening of glucosidases for deglycosylation with purified QS-18 (0.04 mg/ml) at pH 7.5 and room temperature; type: biochemical, Quillaja saponaria; details: pH 7.5, room temperature, 20 h, clarified E. coli lysate, QS-18 2150 to QS-21 1988 by LCMS/MS
Protocol: Nucleotide sequences were sub-cloned into pET24b+ for expression. 10 uL of E. coli cells (One Shot® BL21(DE3) chemically competent E. coli) were transferred to each well of a 96 well PCR plate (prechilled on ice). 10 uL autoclaved water was added to the DNA, resuspended by pipetting, and 1 uL of plasmid DNA (15-30 ng) was transferred to the competent cells. Immediately after addition, the resulting mixture was mixed by pipetting. Cells were heat shocked by placing the plate in a thermal cycler at 42° C. for 30 seconds then transferred directly to an ice bath for 2 min. 100 uL sterile Lysogeny Broth (LB) medium was added to each well containing transformed cells. The content of each plate was transferred into a 96-deep well plate pre-aliquoted with 400 uL LB and the plate was incubated at 37° C. with shaking and 85% humidity for 1 hour. After outgrowth, 500 uL of sterile LB containing 100 ug/mL kanamycin was added to the plates containing cells and plates incubated at 37° C. with shaking overnight (18 hours) with humidity control (85%).
1000 mLs of Overnight Express Media was supplemented with 1 mL kanamycin 50 mg/mL and 20 mL of 50% v/v glycerol added (50 ug/mL kanamycin final and 1% glycerol). 96-Well Assay Block 2 mL plates were aliquoted with 380 uL of media per well. Pre-inoculum (20 uL) from transformation plates was added. The plates were sealed appropriately and incubated at 37° C. at 300 with shaking for 2 h. After 2 h the temperature was lowered to 20° C. and incubation continued for 20 h.
The liquid cultures were centrifuged for 10 minutes at 4° C. The supernatant was discarded, plates blotted on an absorbent material to remove residue and the plates frozen at −80° C.
Lysis buffer was prepared according to the following protocol: • 1. Polymyxin B sulphate (0.5 mg/mL) was suspended in 100 mM potassium phosphate pH 7.5 • 2. The mixture was sonicated until polymyxin B sulphate had dissolved • 3. Lysozyme (1 mg/mL) and benzonase (0.1 uL/mL lysis buffer) were added
2 copies of each cell pellet plate were removed from −80 degC freezer and allowed to thaw. 200 uL of lysis buffer was added to each well of one copy of the cell pellet plates. Plates were shaken at room temperature for 10 mins. 190 uL of cell pellet/lysis buffer was transferred to a corresponding fresh cell pellet plate. These plates were incubated at room temperature with shaking for 2 hours. Lysate was clarified by centrifugation (10 min, 4 degC).
QS-18 was obtained by analogous methods to Example 3, collecting a QS-18 containing phenyl fraction following phenyl treatment (presence of m/z corresponding to key components was confirmed by MS and the phenyl fraction then used without further treatment). QS-18 solution was prepared by diluting aqueous QS-18 (ca 1 mg/mL) with 100 mM potassium phosphate pH 7.5 to 0.2 mg/ml. 40 uL clarified lysate was transferred into fresh 96 well PCR plates. 10 uL QS-18 solution added to each well of lysate to a final concentration of 0.04 mg/ml. Incubated at room temperature with shaking for 20 h. Quenched with 50 uL MeCN and shaken at room temperature for 10 mins. Samples were analysed by LC-MS/MS using a Waters Acquity H class coupled to a Waters Xevo Tandem Quadrupole (TQD) Mass Spectrometer.
Enzyme activity was calculated as: […]
Candidate enzymes with % conversion >0.72%, i.e. >3 S.D. above negative control, were considered to be positive hits and are listed below in Table 7. Sample results are shown in FIG. 10 for a QS-21 standard, FIG. 11 for negative control and FIG. 12 for treatment with the glucosidase of SEQ ID No. 262.

[2] = Experiment 4-2: screening of glucosidases for deglycosylation with purified QS-18 (1 mg/ml) at pH 6 and 30 deg C; type: biochemical, Quillaja saponaria; details: pH 6, 30 degC, 18 hrs, clarified lysate, LCMS/MS
Protocol: Lysates were prepared in an identical manner to Experiment 4-1 above, except the lysis buffer was prepared in 100 mM potassium phosphate buffer pH 6. QS-18 solution was prepared by dissolving QS-18 in 100 mM potassium phosphate buffer pH 6 (2 mg/mL).
12 uL clarified lysate was transferred into fresh 96 well PCR plates. 12 uL QS-18 solution was added (1 mg/ml final concentration), plates sealed and incubated overnight (30° C.) for 18 hrs. After quenching with 25 uL MeCN and shaking for 10 mins (RT), samples were analysed using the LC-MS/MS protocol described in Experiment 4-1 and enzyme activity determined in an analogous manner.

Row | Molecule | Expt 4-1 % conv [1] [%] | Expt 4-2 % conv [2] [%]
1 | 41 (protein, listed as Ardenticatena maritima) MKGARMQDRVETLLQSLTLDEKIKLLAGADTWHTHAIPRLGIPALKVTDGPNGVRGTQKDTRSQTSASFPVGTAMGATWNPDLVREIGEALAEEVKTKGAHVLLGPTVNMHRHPLAGRNFECFAEDPYLMARMAVAYIQGVQSQGVGACIKHYVCNDQEFERFSISAEVDERTLREIYLPPFKAAVQEAGVWTLMTAYNRVNGVYASENSHLFDILKDEWGFDGLALSDWYGTYSDRVPLERLDLEMPGPGRWMAPEKVRAALERGEITEADIDDKVRRLLRTLERVGAFEDSAPKEERSVDNPRHHEIIRRAGREAIVLLKNEDNVLPLDASRFPRLAVIGRPATEVSFQGGGSSEVNPHYVVQPLDAMRERYGEAFQMTYALGPAFYRNFPLLDTRGLRAEDGTPGKVTVRQYDNTELEGEPSKVFLAEGTQLAWFGEQISEFDLRSFSLTMSGTWTPPVSGTYTFSMATVGRGRFEFDGKTLLDWWEYIPEEQPQNFDGMVSVPWRQEEVTLELEAGREYPFRVDFAVVPGGRWRTIRLGVLPPQPADPIGEAVALAREADAAVVFVGLTPEWESEGSDRESMDLPGEQNELVARVAEANPNTIVIVNAGSPVHMPWLDKVKAVLQVWYLGQEMGNAITDVLFGEADPGGRLPTTFPKRLQDSPAYINYPGENGRVYYGERLYVGYRYYDKKEIEPLFPFGHGLSYTTFSYDALELAADQVRVGEGVDVHVTITNQGARRGQEVVQVYLHDVESSLPRPPKELKGFAKVTLEPGETRTVTIHLRPDAFAFYDDKRGAWVVEPGAFEVLVGRSAADIRLRARLDIVDKTTEALEAGNVLAG | 4.0 | 0.7
2 | 370 (protein, listed as Rhizoctonia solani) MAPRPFKPLDVEDVISKLSLNEKTRLLAGIDNWHTYPVPRLGVPSLRFTDGPNGARGTKFFEGVPAACFPAATGLGSSWDPEFIQKVGQAIGRDCKDKGCHVLLGPTINIQRSPLGGRGFESYSEDPLLSGTLARAFIKGVQSEGVSATIKHYVTNDSEFERMSMSSELSTRALREIYLRPFELACRDPETAPWAVMTAYNRVNGLHASENKYLLDSVLRKQWGWEGMIMSDWYGTYSADASIKAGLDLEMPGPPTWRADALQRCVVAQKIRVPEIDARVREVLKLINRVAVSGIPENADETGEPKPETIDLLRQAAAHANVLLKNSESLLPISAKDVASIAVIGPNADSPVFSGGGSANLRPYKHTTALEGIAAALQDAGNKVEVQHTIGAHAHKEAPLLGVKHLKTKAGEPGYDIEWFNEDPVQNPDAKRVHYTHGTTSFAFFNDNLPGDDVLHQECWATMTAIFTPEVTGKYEFGAAATGLVDVYVDGKKIIDNSSNPVPGHVFFMTGTVEVLNTVELTAGKPAEIKLQFASPVAARTKGFTQIGAGSLSLEGRGGCRWGGGRTFEDDQGIKEAVDLAKKVDKVVLVVGLNNDWESEGYDRDNMELPRATNRLVSAVLEVNKNTAVVIISGTPVAMPWAESASTIVQSFYSGGEAGNGLADVLFGKVNPSSRLPLTFPVRDEDTPSHLNFPGQNGKVLYAEGVFVGYRHYLTYKKKVLFPFGYGLSYTQFEHSDLKLSGEIGKDSTVKVSVTVKNTGKVAGRDVVQIYVRDLVSRLDRPVKELKGFAKSSLLEPGKSETVTITLDKYAFGYFDDWAGEGRDGEGLWVAEAGDFEIVAASTSEDVGISAGISLKQSFEWL | 1.1 | 0.5
3 | 312 (protein, listed as Thermotoga neapolitana) MEKVNEILSQLTLEEKVKLVVGVGLPGLFGNPHSRVAGAAGETHPVPRVGLPAFVLADGPAGLRINPTRENDENTYYTTAFPVEIMLASTWNRELLEEVGKAMGEEVREYGVDVLLAPAMNIHRNPLCGRNFEYYSEDPVLSGEMASSFVKGVQSQGVGACIKHFVANNQETNRMVVDTIVSERALREIYLRGFEIAVKKSKPWSVMSAYNKLNGKYCSQNEWLLKKVLREEWGFEGFVMSDWYAGDNPVEQLKAGNDLIMPGKAYQVNTERRDEIEEIMEALKEGKLSEEVLDECVRNILKVLVNAPSFKNYRYSNKPDLEKHAKVAYEAGAEGVVLLRNEEALPLSENSKIALFGTGQIETIKGGTGSGDTHPRYAISILEGIKERGLNFDEELAKTYEDYIKKMRETEEYKPRRDSWGTIIKPKLPENFLSEKEIHKLAKKNDVAVIVISRISGEGYDRKPVKGDFYLSDDETDLIKTVSREFHEQGKKVIVLLNIGSPVEVVSWRDLVDGILLVWQAGQETGRIVADVLTGRINPSGKLPTTFPRDYSDVPSWTFPGEPKDNPQKVVYEEDIYVGYRYYDTFGVEPAYEFGYGLSYTTFEYSDLNVSFDGETLRVQYRIENTGGRAGKEVSQVYIKAPKGKIDKPFQELKAFHKTRLLNPGESEEVVLEIPVRDLASFNGEEWVVEAGEYEVRVGASSRNIKLKGTFSVGEERRFKP | 1.6 | 0.4
4 | 32 (protein, uncultured Clostridium sp.) MSIRLTDKASVPAVVAEMTLEEKARLVTGEFPFTTAGIKRLGIPPMRPLDGHTGINMGQLRSDMASKTLANKSVDELGEMSGPAISGFGTVITNAKDPAKRAKMAPSIQKLVQEVLDKVDELMPDGMYPGCFPPGIMQGSTWNPEVIEKEGSAVGKEMDAYKVDVCLGPNVNIHRDPLNGRLFEGYSEDPYVTATLAPYYIRGMQAEGVAADAKHFAANNQETHRQEIDERIPLRALYEIYLPGFKAAVQQGKVKTLMSAYNKINGTACALNHWLLTDVLRGEWGFEGFVVSDWGAVYDQVDAINAGNDLEMPGPLTFDKIVAAVKDGRIDEKTLDQRVANYLNVLVELPVMKGRKNAHIDREYSRKAAYDVAAEGSILLKNEGALPLNEGAKISLIGEHAKDYIICGKGSAFIDTDQATNLYDCAVETLGADKVEYGDVSADSDAAIIVVSVDGQEGSDRADLLLAPGDDQMILDAAKKAHANGKKAIVILNVTGPVEMEGWLDQVDAVLCVWLPGMEGGRATLDILTGKVNPSGKLTLTFPKHYYDCPTYGNFPGDGDEVWYGEGIYVGYRYYDKKHVEPLYPFGYGLSYTTFELSDIAIDRDVMDMDKGETVNVSVKVTNTGKVAGKEVVQVYISDEVSTLSKPLKELKGFQKVALQPGESKVVTIAIGKDQLASYDPAAKAWGSEPGYYQALVGTSSRDIAGAVRFKAVGYNPFGYGVNCSIGKIMANPAVVEAMKKYIPAHLLSDESMSSELTYFPEAKLQKIWNEKFSLAFKDKSETEKQAILDAMCAEIAKIEVI | 2.2 | 0.6
5 | 35 (protein, listed as Verrucomicrobia bacterium) MSEPDVENRINGLLKQMSLEEKTSLLHGNSKFNTAGIKRLGIPRLHLSDGPHGVRRETEEHSWGPVGWEDDYVTYLPTGSALASTWNPALGRLFGETLGAEARHRNKDVILGPGINIVRTPVCGRNFEYFGEDPYHVGKMAAEVVRGIQNNDVAACVKHYALNNQEWNRGWVNAIVDERTLREIYLPAFEETVRAGALTFMGAYNRFRGQWCCENKYLVNDILKGEWGFDGVYLSDWGGVHSTRDSALNGLDLEMGTSDNYDEFFFARPLREAVEGGEIPESVVDDKVRRILRVMARIGALDPATRKTGARNTAAHQKAVRAIADEAMVLLKNDGVLPLDIHKTLKLAVIGENADKKHADQGGSSAIRALYEITPLEGLKRRGGDMVKITYVQGYRDTGDAAAFEPIGEPYVQTVDPKAGVRCWKVEYFNNRDLHMPPVTVRYEKSVDFDWQERSPAPNVSEDNFSARMTAEIKPTASGTHHIGLTSDDGSRLKIDGKVVIDHWGDHGEEQKDARVELVAGQTYRFEVEYYDSGKGAMLKLGWVTPDSSAADPEVVFAAALEAAREADAVLVFAGQNHRYDTEGVDRRDIRLHGRQNDLIEAVAAANPRTAVFIISGSAVEMPWIDKVPCVVQAWYAGMEVGNAAAGIVFGDVNPSGKLPITFPKRLEDVPAHSIGQYNDQDCEYREGLLVGYRHFDTRNAEPLFPFGHGLSYTKFTYGNLKVDPATLEVRVSVKNTGARKGKEVVQLYVHDVQSRLPRPVKELKGFEKVELAPGETKEVAFRLDERALAFYDADANRWVVEPGDFDILVGSSSRDIRLKGRLAYAGRKKGPL | 1.2 | 0.4

Source: US20240026407A1, “MODIFICATION OF SAPONINS” (GLAXOSMITHKLINE BIOLOGICALS SA, priority 2020, published 2024)
